Measured values taken from US20200115432A1 (published 2020).

Assays:
[1] = target: T1, peptide on HLA-A*02:01 (human); assay: activation reporter or marker
T1 peptide: VYALPLKML

[2] = target: T2, peptide on HLA-A*24:02 (human); assay: activation reporter or marker
T2 peptide: VYALPLKML

B1: JG9-TCR (TCR, V domains shown)
Valpha: GQQLNQSPQSMFIQEGEDVSMNCTSSSIFNTWLWYKQEPGEGPVLLIALYKAGELTSNGRLTAQFGITRKDSFLNISASIPSDVGIYFCAGPMKTSYDKVIFGPGTSLSVIP
Vbeta: DAGVIQSPRHEVTEMGQEVTLRCKPISGHDYLFWYRQTMMRGLELLIYFNNNVPIDDSGMPEDRFSAKMPNASFSTLKIQPSEPRDSAVYFCASSSANYGYTFGSGTRLTVV
[1]
  binding result: no recognition
[2]
  binding result: no recognition
